Assay: yeast display, Sf9 membrane polyspecificity reagent, FACS + sequencing; frameworks hold sequencing errors
Summary of the method: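 Galactose induction of a Saccharomyces cerevisiae BJ5465 synthetic nanobody display library ran 36–48 hours. The cells were then stained for 1 hour at 4 °C with 10% biotinylated, detergent-solubilized Sf9 membrane reagent, pulled down on streptavidin microbeads and FACS-sorted into low and high (top ~1%) gates on expression and reagent-binding fluorescence. Labels for polyreactivity follow the gate of origin.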

Sequence	polyreactivity (PSR sort gate)
QVQLVESGGGLVQEGGSLRLSCAASGFIFRSYAMGWYRKAPGKERELVAAISSSGGSTYYADSVKGRFTISRDNAKNTVYLPMNSLKPEDTAVYYCAKGYQRGRDYWGQGTQVTVSS	high polyreactivity
QVQLVESGGGLVQEGGSLRLSCAASGFSFERNAMGWDRQAPGKERELVATIPWSGTRTNYADSVKGRFTISRDNAKNTVYVQMNSLKPEDTAVYYCAVVVSAPSRESKSTVQMDYWGQGTQVTVSS	high polyreactivity
QVQLVESGGGLVQEGGSLRLSCAASGFTFGSYAMGWYRQAPGTERELLAAITTDGSTYYADSVKGRFTISRDNAKNTVYLHMNSLKREDTAVYYCAAGYSYDRYGSDMDYWGQGTQVTVSS	low polyreactivity
QVQLVESGGGLVQEGGSLRLSCAASGITFDNYDMGWYRQAPGKERELVAAISSDDNTTYADSVKGRFTISRDNAMNTVYFQMNSLKTDDTAVYYCAADYRIYGYLEYDYWGQGTQVTVSS	low polyreactivity
QVQLVESGGGLVQEGGSLRLSCAASGITFDYYAMGLYRQAPGKERELVASISYSGGSTYADSVKGRFTISRDNAKNTVYLQMNSLKPEDTAVYYCAKDSQETAYNTVDYCGQGTQVTVSS	low polyreactivity
QVQLVESGGGLVQEGGSLRLSCAASGLIVGQNAMGWYRQAPGKDRELVAAISQRGGTYYADSVKGRFTISRDNAKNTVYLQMNSLKPEDTAVLYCAARVGLQPGRYYLRYDYWGQGTQVTVSS	low polyreactivity
QVQLVESGGGLVQEGGSLRLSCAASGNTVGINAMGWYRQAPGKERELVASISFTGSSTYYADSVKGRFTISRDNAKNTVYFQMNSLKPEDTAVSYCNRDRITLYEYDYWGQGTQVTVSS	low polyreactivity
QVQLVESGGGLVQEGGSLRLSCAASGRIIERSAMGWYRQAPGKERELVAGISISGGGTYYADSVKGRFTISRDKAKNTVYLLMNCLKPEDTSVYYCAGTFPREEYGYWGQGTQVTVSW	low polyreactivity
QVQLVESGGGLVQEGGSLRLSCAASGRIIEYNTMGLNRPATGKERELVAAITGGTGSTYYADSVKGRFTISRDNAKNTVYLQMNSLIPVDTSVYYCNADGMILYDYWGQGTQVTVSS	low polyreactivity
QVQLVESGGGLVQEGGSLRLSCAASGRTFDRYAMGWYRQAPGKERELVAAITWTGGSTYYADSVKGRFTISRDNAKNTVYLQMNSLKPEDTAFYYCNRAPSRPTSKTRLYYWGKGTQVTVSS	high polyreactivity
QVQLVESGGGLVQEGGSLRLSCAASGRTFEQNAMGWYRQAPGKERELVASITSVGSTDYADSVKGRFTISRDNAKNTVYLQMNSLKTEDTAVYYCAKTLGSQNYDFDYWGQGTQVTVSS	low polyreactivity
QVQLVESGGGLVQEGGSLRLSCAASGRTFVPYAMGWYRQAPGKERELVAAISRSGGRTYYADSVKGRFTLSRDNAKNTVYLQMKSLKPEDTAVYYCAARYYSEPNAYYYWGQGTQVSVSS	high polyreactivity
QVQLVESGGGLVQEGGSLRLSCAASGSIFDDYAMGWYRQAPGKEWELVAAITSGGSTYYADSVKGRFTISRDNAKNTVYLQMNSLKPEDTAVYYRATRYHWSSSFAPVGAYGYWGHGTQVTVSS	low polyreactivity
QVQLVESGGGLVQEGGSLRLSCAASGSIFDVYAMGWSRQGPGKERELVAAISSSGSTYYADSVKGRFTISRDNAKNTVYLQMNSLKPEDTAVYYCAAVQADDDDYYYWGQGTQVTVSS	low polyreactivity
QVQLVESGGGLVQEGGSLRLSCAASGSIFKPYAMGWYRQAPGKERELVAAINRGGTSTYYADSVKGRFTISRDNAKHTVYLQMNRLKPEDTAVYYCAAEGQDGRFYWGQGTQVTVSS	low polyreactivity
QVQLVESGGGLVQEGGSLRLSCAASGSTFGLYAMGWYRQAPGKERELVAAISSRGSRTYYADSVKGRFTISRDNAKNTVYLQMNSLKPEDTAVYYCNAMYASCVRHKVTYDYWGQGTLVTVSS	high polyreactivity
QVQLVESGGGLVQEGGSLRLSCAASGSTFNYYAMGWYRQAPGKESELVARISWSGSTYADSVKGRFTISRDNAKNTVYLQMNSLKPEDTAVYYCAAPYVLKSHRGMDYWGQGTQVTVSS	low polyreactivity
QVQLVESGGGLVQEGGSLRLSCAASGSTISSYAMGWYRQAPGKERELVAAITSGGSTYYADSVKGRFTFSRDNAKNTVYLQMNSLKPDDTAVYYCDLGSTTMDYWGQGTQVTVSS	low polyreactivity
QVQLVESGGGLVQEGGSLRLSCADSGITFWAYAMGWYRQAPGKERELVASISSGGSTYYADSVKGRFTISRDNAKNTVYLQMNSLKPEDTAVYYCNTQDRSEYDWGQGTQVTVSS	high polyreactivity
QVQLVESGGGLVQEGGSLRLSCADSGSISYQNAMGWYRQAPGKERELVAAISGDGDSTYYADSVKGRFTISRDNAKNTVYLQMNSLNPEDTGVYYCAAEPNVYFSVFVLFPSDYWGQGTQVTVSS	low polyreactivity
QVQLVESGGGLVQEGGSLRLSCASSGFTFAYNAMVLYRQAPGKERELVAGINSSGDGTYYADSVKGRFTISRDNAKNTVYLQMNSLKPEETAVYYCAADYTRFYPDGSDVDYDYWGQGTQVTVSS	low polyreactivity
QVQLVESGGGLVQEGGSLSLSCAASGITFRSYTMGWYRQAPGKERELLAGITRRGGSTFYADSVKGRFTISRDNATNTVYLQMNSLNPEDTAVYFCAVGFYYLSSWYSYDYRGQGTQVTVSS	high polyreactivity

Sequence	polyreactivity (PSR sort gate)
QVQLVESGGGLVQEGRSLRLSCAASGLTFQYYAMGWYRPAPGKERELVAAISSGGDTYYADSVKGRFTISRDNAKNNVYFQMYSVKREDTAVYYCAARVVLYSRSTYYYWGQGTQVTVSS	high polyreactivity
QVQLVESGGGLVQEGRSLRLSCAASGSIFTPYAMGWYRQAPGKERELVADINSGGSTDYADSVKGRFTISRDNAKNTVYLQMNSLKPEDTAVYYCASTWSFYFILYDYWGQGTQVTVSS	high polyreactivity
QVQLVESGGGLVQERGSLRLSCAASGSIFIPYARGWYRQAPGKERELVAAISLGDGKTYYADSVKGRFTISRDNAKNTVYLQMNSLKPEDTAVYYCNAVPRKFGDEYWGQGTQVTVSS	low polyreactivity
QVQLVESGGGLVQEVGSLRLSCAATGRTFYQNVMGWSRQARGKERELVAAISQRGGRTYYADSVKGRFTISRDNAKITVYLQMNSLKPEDTEVYYCNADSTVWPYDYWGQGTQVTVSS	low polyreactivity
QVQLVESGGGLVQGGGSLRFSCAASGSTFPSYARGWYRQAPGKERELVAAINSGGGTNYADSVKGRFTISRDNAKNTVYLHMNSLKPEDTAVYYCAKSRYDYTKTEGGYWGQGTQVTVSS	low polyreactivity
QVQLVESGGGLVQGGGSLRLRCAASGRSFKWYAMVWYRQAPGKDRELVAGISRGAGRTYYADSEKGRFTISRDNAKNTVYLQMNSLKADDTAVYYCAAVPSYHSTSPFYYWGLGTQVTVSS	high polyreactivity
QVQLVESGGGLVQGGGSLRLSCAASGFTFVYYAMGWDRQAPGKERELVAAISRSGGSTYYADSVKGRFTISRDNAKNTFYLQMNSLKPEDTAVYYCAARKNYGSRLSYEYWGQGTQVSVSS	high polyreactivity
QVQLVESGGGLVQGGGSLRLSCAASGLIFSYYAMGWYRQAPGKERELVAAISRGGATNYADSVKGRFTISRDTAKNTVYLQMNSLKPEDTAVYYCSARFVLRRDYGYWGQGTQVTVSS	high polyreactivity
QVQLVESGGGLVQGGGSLRLSCAASGLIFYRNDMVWNRQAPGKERELVDAISKNGANTYYADSVKGRFTSSRDNAKNTVYLHMNCLKREDTAVYYCAKGVYYPWWYVQPEHDYWGQVTQVTVSS	high polyreactivity
QVQLVESGGGLVQGGGSLRLSCAASGRTFYRYVMGWYRQAPGKERELVADISRRGGRTYYADSVKGRFTISRDNAKNTVYLQMNSLKPEDTAVYYCAAGQLGDYWGLGTQVTVSS	high polyreactivity
QVQLVESGGGLVQGGGSLRLSCAASGSIFSDNAMGWYRQAPGKERELVATITFSGASTYYADSVKGRFTISRDNAKNTVYLKMNSLKPEDTAVYYCAAEEPDVIAQPGFDYWGQGTQVTVSS	low polyreactivity
QVQLVESGGGLVQGGGSLRLSCADSGSTFSSNAMGWYRQAPGKERELVAAITGSGGRTYYADSVKRRFTISRDNAKNTVYLQMNCLKPEDTAVYYCAKRYRGGYWGQGTQVTVSS	high polyreactivity
QVQLVESGGGLVQGGGSLSLSCAASGSIFLYYAMGWYRQAPGKERELVAGIRRGGRTNYSDSVKGRFTISRDNAKNNVYLQMNSLKPEDTAVDYCAKGGYCGQGTQVTVSS	high polyreactivity
QVQLVESGGGLVQPGGRLLLSSAASGSIFDYYVMGWYRLEPVKERELVAAISWSGASTYYADSVKGRFTISRDNAKNTVYVKMNSLKPEDTAVYYCAADYGVNTLIDYDYWGQGTQVTVSS	low polyreactivity
QVQLVESGGGLVQPGGSFHLSCAASGSIFVVYAMGWYRQAPVKERELVAAITSGGSTYYADSVKGRFTISRDNAKKTVYLQMNSLKPEDTAVYYCATTYRDGVYELTTFDYWGQGTQVTVSS	low polyreactivity
QVQLVESGGGLVQPGGSLRISCAASGFTFVYYVMGWYRQAPGKERELVAAINAGGGSTYYADSVKGRFTISRDNAKNTVYLQMNSLKPEDTAVYFCNARVRVRLGRNWSSYYYWGQGTEVTVSS	high polyreactivity
QVQLVESGGGLVQPGGSLRLSCAASGFIFPTNVMGWSRQAPGKEREFVASITWRGGGTYYADSVKGRFRISRDNAKNTVYVQMNSLKPEDTAVYYCAAGRSWSSYWKYDYWGQGTQVTVSS	low polyreactivity
QVQLVESGGGLVQPGGSLRLSCAASGGTFQPNAMVWYRQAPGKERELVAAISWSDGSTYYADSVKGRFTISLDNAKNTVYLQMNSLKPVDTAVYYCAADFTYYDSPYRDYNYESWGQGTQVTVSS	low polyreactivity
QVQLVESGGGLVQPGGSLRLSCAASGRTFTKNAMGWYRQAPGKERELVAAISISGGSTYYADSVKGRFTISRDNAKNTVYLLMNSLKPEDTAVYYCAADVVTYLSYTLDYWGQGTQVTVSS	low polyreactivity
QVQLVESGGGLVQPGGSLRLSCAASGSIDCYGMGWYRQAPGKERELVAIITSVYSTYYADSVKGRFKISRDNAKNTVYLQMNSLKPEDTAVYYCAATAAYFYGQFYYWGQGTQVTVSS	high polyreactivity
QVQLVESGGGLVQPGGSLRLSCAASGSIFLRYAMGWYRQAPGKERELVAGITSGGSTNYADSVKGRFTISRDNAKNTVYLQMNSLKPEDTAVYYCNKDLPDWGQGTQVTVSS	low polyreactivity
